B1: mAb10923 (antibody, V domains shown)
VH: QVQLVQSGAEVKKPGASVKVSCKASGYTFINYYIHWVRQAPGQGLEWMGWINPNSGGTNYAQKFQGRVTMTRDTSISTAYMELSRLRSDDTAVYYCAIITIFGVVTWFDPWGQGTLVTVSS
VL: not shown
B2: mAb10964 (antibody, V domains shown)
VH: QVQLQESGPGLVKPSETLSLTCTVSGGSINNYYWIWIRQPPGKGLEWIGYIYHSGSTNYNPSLKSRVTISVDTSKNQFSLKVSSVTAADTAVYYCANMVRGVYEDDYWGQGTLVTVSS
VL: DIQMTQSPSSLSASVGDRVTITCRASQSISNYLNWYQQKPGKAPKLLIFAASSLRSGVPSRFSGSGSGTDFTLTISSLHPEDFATYYCQQNYNTPLTFGPGTKVDIKR
B3: mAb10930 (antibody, V domains shown)
VH: EVQLVESGGGLVQPGRSLRLSCAASGFTFDDYAMYWVRQAPGKGLEWVSGISWNSGSIGYADSVKGRFTISRDNAKNSLYLQMNSLRAADTALYYCAKDKDWNSRGYYYYGMDVWGQGTTVTVSS
VL: not shown
B4: mAb10984 (antibody, V domains shown)
VH: EVQLVESGGGLVQPGGSLRLSCAASGLTVNRNYMSWVRQAPGKGLEWVSLIYSGGSTYYADSVKGRFTISRDNSKNTLYLQMNSLRLEDTAVYYCARGELGIPYGMDVWGQGTTVTVSS
VL: QSVLTQPPSVSAAPGQKVTISCSGSSSNIGNNYVSWYQQLPGTAPKLLIYDNNKRPSGIPDRFSGSKSGTSATLGITGLQTGDEADYYCGTWDSSLSAGVFGGGTKLTVLG
B5: mAb10989 (antibody, V domains shown)
VH: QVQLVQSGAEVKKPGASVKVSCKASGYIFTGYYMHWVRQAPGQGLEWMGWINPNSGGANYAQKFQGRVTLTRDTSITTVYMELSRLRFDDTAVYYCARGSRYDWNQNNWFDPWGQGTLVTVSS
VL: QSALTQPASVSGSPGQSITISCTGTSSDVGTYNYVSWYQQHPGKAPKLMIFDVSNRPSGVSDRFSGSKSGNTASLTISGLQAEDEADYYCSSFTTSSTVVFGGGTKLTVLG
B6: mAb10938 (antibody, V domains shown)
VH: EVQLVESGGGLVQPGGSLRLSCAVSGFTVSSNYMSWVRQAPGKGLEWVSLIYSGGSTFYADSVKGRFTISRHNSKNTLYLQMNSLRAEDTAVYYCAREGGYSYDYNYWGQGTLVTVSS
VL: DIQMTQSPSSLSASVGDRVTITCQASQDIRNYLNWYQQKPGKAPKLLIYDASNLETGVPSRFSGIGSGTDFTFTISSLQPEDIATYYCQQYDNLPITFGQGTRLEIKR
B7: mAb10955 (antibody, V domains shown)
VH: EVQLVESGGGLVQPGGSLRVSCAASGFTVSRNYMSWVRQAPGKGLEWVSVIYSGGSTFYADSVKGRFTISRDNSKNTLYLQMNSLRAEDTAIYYCARYIPRFDPWGQGTLVTVSS
VL: DIQMTQSPSSLSASVGDRVTITCQASQDISNYLNWFQQKPGRAPKLLIYDASNLETGVPSRFSGSGSGTDFTFTISSLQPEDIATYYCQQYDNLPITFGQGTRLEIKR
B8: mAb10967 (antibody, V domains shown)
VH: EVQLVESGGGLVQPGGSLRLSCAASGFTVSSNYMSWVRQAPGKGLEWVSVIYPGGSTFYADSVKGRFTISRDNSKNTLYLQMNSLRAEDTAVYYCARDQRDFAWGQGTLVTVSS
VL: DIQMTQSPSSLSASVGDRVTITCQASQDISNYLNWYQQKPGKAPKLLIYDASNLETGVPSRFSGSGSGTDFTFTISGLQPEDIATYYCQQYDNLPPTFGQGTRLEIKR
B9: mAb10954 (antibody, V domains shown)
VH: EVQLVESGGGLVQPGGSLRLSCAASGITVSSNYMSWVRQAPGKGLEWVSLIYSGGSTYYADSVKGRFTISRDNSKNTLYLQMNSLRVEDTAVYYCARDHGMAAAGYNYWGQGTLVTVSS
VL: DIQMTQSPSSLSASVGDRVTITCQASQDINKYLNWYQQKPGKAPKLLIYDASNLETGVPSRFSGSGSGTDFTFTINSLQPEDFATYFCQQYDNLPPAFGQGTKVEIKR
B10: mAb10982 (antibody, V domains shown)
VH: EVQLVESGGGLVQPGGSLRLSCAASGLTVSSNYMSWVRQAPGKGLEWVSVIYSGGTTYYADSVKGRFTISRHNSKNTLSLQMNSLRAEDTAVYYCARGEGANYYGMDVWGQGTTVTVSS
VL: QSVLTQPPSVSGAPGQRVTISCTGSSSNIGTGYDVHWYQQLPGTAPKLLIYGNSNRPSGVPDRFSGSKSGTSASLAITGLQAEDEADYYCQSYDSSLSGYVVFGGGTKLTVLG
B11: mAb10986 (antibody, V domains shown)
VH: EVQLVESGGGLVQPGGSLRLSCAASEFTVSSNYMSWVRQAPGKGLEWVSVIYSGGSTFYADSVKGRFTISRDNSKNTLYLQMNSLRAEDTAVYYCARALPYGDLHFDYWGQGTLVTVSS
VL: QSVLTQPPSVSGAPGQRVTISCTGSSSNIGTGYDVHWYQQLPGTAPKLLIYGNTNRPSGVPDRFSGSKSGTSASLAITGLQAEDEADYYCQSYDSSLSDSYVFGTGTKVTVLG
B12: mAb10985 (antibody, V domains shown)
VH: EVQLVESGGGLVQPGRSLRLSCAASGFTFDDYAMHWVRQAPGKGLEWVSGISWNRGSIGYADSVKGRFTISRDNAKNSLYLQMSSLRAEDTALYYCAKDGERWDSVVVPSARNGMDVWGQGTTVTVSS
VL: QSVLTQPPSVSGAPGQRVTISCTGSSSNIGAGYDVHWYQQLPGTAPKLLIYGNSNRPSGVPDRFSGSKSGTSASLAITGLQAEDEADYYCQSYDSSLSGSYVFGTGTKVTVLG
B13: mAb10939 (antibody, V domains shown)
VH: EVQLVESGGGLVQPGGSLRLSCAASGLTVSSNYMNWVRQVPGKGLEWVSVIYSGGSKFYVDSVKGRFTISRHNSKNTLYLQMNSLRPEDTAVYYCTRDAQYYGMDVWGQGTTVTVSS
VL: DIQMTQSPSSLSASVGDRVTITCRASQSISTYLHWYQQKPGEAPKLLIYAASSLQSGVPSRFSGSGSGTDFTLTISSLQPEDFATYYCQQSYSTPPEIFGQGTKLEIKR
B14: mAb10956 (antibody, V domains shown)
VH: EVQLVESGGGLVQPGGSLRLSCAASGLTVSSNYMSWVRQAPGKGLEWVSVIYSGGSTFYADSVKGRFTISRDNSKNTLYLQMNSLRAEDTAVYYCARDLIKYGMDVWGQGTTVTVSS
VL: not shown
B15: mAb10971 (antibody, V domains shown)
VH: EVQLVESGGGLIQPGGSLRLSCAASGVTVSSNYMSWVRQAPGKGLEWVSVIYSGGSTFYSDSVKGRFSISRDNSKNTLYLQMNSLRAEDTAVYYCARDLYYYGMDVWGQGTTVTVSS
VL: DIQLTQSPSFLSASVGDRVTITCRASQGISTYLAWYQQKPGKAPKLLIYAASTLQSGVPSRFSGSGSGTEFTLTISSLQPEDFATYYCQQLDSYPGLTFGGGTKVEIKR
B16: mAb10957 (antibody, V domains shown)
VH: EVQLVESGGGLVQPGGSLRLSCAASGVTVSSNYMSWVRQAPGKGLEWVSVIYSGGSTFYADSVKGRFTISRDNSKNTLFLQMNSLRIEDTAVYYCARDLGPYGMDVWGQGTTVTVSS
VL: DIQLTQSPSFLSASVGDRVTITCRASQGISSYLAWYQQKPGKAPKLLIYAASTLQSGVPSRFSGSGSGTQFILTISSLQPEDFATYYCQQLNSYPGFTFGPGTKVDIKR
B17: mAb10966 (antibody, V domains shown)
VH: EVQLVESGGGLVQPGGSLRLSCAASGLTVSSNYMSWVRQAPGKGLEWVSVIYSGGSTFYADSVKGRFTISRDNSKNTLYLQMNSLRPEDTAVYYCAREGRIAATGYGMDVWGQGTTVTVSS
VL: not shown

Bounds are passed on as bounds.

The test addresses SARS-COV-2 RBD extracellular domain expressed with a C-terminal mouse IgG2a (SARS-CoV-2).
The term Kd denotes the concentration at which binding is half-saturated. Read a low Kd as tighter binding. Broadly, the koff is a measure of how fast the partners let go of each other. Low values mean a long-lived complex, high ones a short-lived complex. The kon is the rate constant with which the complex forms. Higher therefore signals fast association. Usually t½ stands for the time needed for the level to fall by half in the phase considered. Lower therefore signals rapid decline. Molecule B1 registered a Kd of 0.0435 nM, a dissociation rate constant (koff) of 2.83e-05 s⁻¹, an association rate constant (kon) of 651000 M⁻¹ s⁻¹ and a t½ of 6.79 h.

In the case of B2, the equilibrium dissociation constant (Kd) is not above 0.007 nM and the t½ is not below 19.2 h.

B3 returned a dissociation constant Kd not above 0.0431 nM, an off-rate (koff) not above 1e-05 s⁻¹, a kon of 232000 M⁻¹ s⁻¹ and a t½ not below 19.2 h.

In turn, B4 yielded a Kd not above 0.0249 nM and a t½ not below 19.2 h.

In the case of B5, the t½ came to 2.07 h.

In the case of B6, the Kd is not above 0.0322 nM and the t½ is not below 19.2 h.

For the molecule B7, binding was put at a Kd of 0.0592 nM and the t½ was found to be 8.23 h.

B8 returned a Kd not above 0.0251 nM and a t½ not below 19.2 h.

B9: the dissociation constant Kd was not above 0.0173 nM and the t½ was not below 19.2 h.

The molecule B10 registered a Kd of 0.0544 nM, a dissociation rate constant (koff) of 1.69e-05 s⁻¹, an association rate constant (kon) of 310000 M⁻¹ s⁻¹ and a t½ of 11.4 h.

As to B11, the dissociation constant Kd was not above 0.0158 nM and the t½ was not below 19.2 h.

Consider B12, for which the Kd worked out at 0.0117 nM and the t½ stood at 15.2 h.

In turn, B13 showed an equilibrium dissociation constant (Kd) of 0.0387 nM, a koff of 1.15e-05 s⁻¹, an on-rate constant (kon) of 299000 M⁻¹ s⁻¹ and a t½ of 16.7 h.

Take B14: binding was put at a Kd of 0.395 nM and the t½ stood at 1.3 h.

B15 returned a Kd not above 0.0253 nM, an off-rate constant (koff) not above 1e-05 s⁻¹, a kon of 395000 M⁻¹ s⁻¹ and a t½ not below 19.2 h.

B16 came in with a Kd not above 0.0279 nM and a t½ not below 19.2 h.

B17 came in with an equilibrium dissociation constant (Kd) not above 0.0249 nM and a t½ not below 19.2 h.

Values taken from patent US20260234738A1 (Regeneron, published 2026).
